Key:
[1] = test system: CD4 positive helper T cell lines (Th); assay: [3H] thymidine intake of CD4 positive helper T cell line of colon cancer patient induced by hsp105; assay type: cell-based, human; conditions: FIG. 7A
Protocol: (§1) The spleen of a BALB/c mouse was collected and ground to separate spleen cells. 200,000 spleen cells per well on a 96-well flat plate were cultured in 200 μl of a culture solution containing IL-2 (100 IU/ml) and a 2 μg/ml recombinant hsp105 protein for 1 week. Thereafter, every week, the culture product was repeatedly stimulated with 200,000 spleen cells, which had been pulsed with a 2 μg/ml recombinant hsp105 protein and then exposed to radioactive rays, so as to establish multiple CD4 positive helper T cell lines (Th). The expression of CD4 and CD8 on the surface of cells was confirmed by performing immunofluorescent staining with Monoclonal Antibody MOUSE CD4-FITC, CD8-FITC (IMMUNOTECH, Marseille, France), and then analyzed with FACS (FIG. 6A). […] Thereafter, the intake of [^3H] thymidine was measured with a liquid scintillation counter. […] Thus, IFN-γ and IL-4 secreted from Th as a result of the reaction were measured with Mouse IFN-γ, IL-4 ELISA Ready-SET-Go! […]
(§2) Monocytes were separated from the peripheral blood. […] The expression of CD4 and CD8 on the surface of cells was confirmed by performing immunofluorescent staining using Pharmingen anti-human CD4, CD8-FITC, and then analyzed with FACS. […] In addition, in the same manner as in Example 7, IFN-γ and IL-4 secreted from Th as a result of the reaction were measured using Human IFN-γ, IL-4 US ELISA Kit (BIOSOURCE, Camarillo, Calif.). […]

[2] = test system: CD4 positive helper T cell lines (Th); assay: IFN-γ and IL-4 ELISA of mouse Th induced by hsp105; assay type: cell-based, BALB/c mouse; conditions: supernatant 24 hours after addition of Th, FIG. 6C
Protocol: as §1, with “6A). It was examined by the intake of [^3H] thymidine, whether or not Th specifically reacts with the hsp105 protein and grows. Specifically, 150,000 spleen cells were placed in each well of a 96-well flat plate, and several wells were pulsed with the hsp105 protein overnight, and the other wells were not pulsed therewith.” for “6A).”

[3] = test system: CD4 positive helper T cell lines (Th); assay: [3H] thymidine intake of mouse CD4 positive helper T cell line induced by hsp105; assay type: cell-based, BALB/c mouse; conditions: spleen cells pulsed with hsp105 protein, 72 hours, FIG. 6B
Protocol: as §1, with “6A). It was examined by the intake of [^3H] thymidine, whether or not Th specifically reacts with the hsp105 protein and grows. Specifically, 150,000 spleen cells were placed in each well of a 96-well flat plate, and several wells were pulsed with the hsp105 protein overnight, and the other wells were not pulsed therewith.” for “6A).”

[4] = test system: CD4 positive helper T cell lines (Th); assay: IFN-γ and IL-4 ELISA of colon cancer patient Th induced by hsp105; assay type: cell-based, human; conditions: FIG. 7B
Protocol: as §1, §2

Colon-26 = assay: In vivo antitumor activity of mouse Th induced by hsp105, local injection into Colon-26 tumor; set-up: species or system BALB/c mouse; conditions: tumor with a size of 3 mm, FIG. 6D
Protocol: as §1, with “6A). It was examined by the intake of [^3H] thymidine, whether or not Th specifically reacts with the hsp105 protein and grows. Specifically, 150,000 spleen cells were placed in each well of a 96-well flat plate, and several wells were pulsed with the hsp105 protein overnight, and the other wells were not pulsed therewith.” for “6A).”

B1: hsp105 protein: recombinant hsp105 protein, heat shock protein cancer antigen (SEQ ID NO: 1), used to induce CD4 positive helper T cell lines (protein, listed as Homo sapiens)
chain: MSVVGLDVGSQSCYIAVARAGGIETIANEFSDRCTPSVISFGSKNRTIGVAAKNQQITHANNTVSNFKRFHGRAFNDPFIQKEKENLSYDLVPLKNGGVGIKVMYMGEEHLFSVEQITAMLLTKLKETAENSLKKPVTDCVISVPSFFTDAERRSVLDAAQIVGLNCLRLMNDMTAVALNYGIYKQDLPSLDEKPRIVVFVDMGHSAFQVSACAFNKGKLKVLGTAFDPFLGGKNFDEKLVEHFCAEFKTKYKLDAKSKIRALLRLYQECEKLKKLMSSNSTDLPLNIECFMNDKDVSGKMNRSQFEELCAELLQKIEVPLYSLLEQTHLKVEDVSAVEIVGGATRIPAVKERIAKFFGKDISTTLNADEAVARGCALQCAILSPAFKVREFSVTDAVPFPISLIWNHDSEDTEGVHEVFSRNHAAPFSKVLTFLRRGPFELEAFYSDPQGVPYPEAKIGRFVVQNVSAQKDGEKSRVKVKVRVNTHGIFTISTASMVEKVPTEENEMSSEADMECLNQRPPENPDTDKNVQQDNSEAGTQPQVQTDAQQTSQSPPSPELTSEENKIPDADKANEKKVDQPPEAKKPKIKVVNVELPIEANLVWQLGKDLLNMYIETEGKMIMQDKLEKERNDAKNAVEEYVYEFRDKLCGPYEKFICEQDHQNFLRLLTETEDWLYEEGEDQAKQAYVDKLEELMKIGTPVKVRFQEAEERPKMFEELGQRLQHYAKIAADFRNKDEKYNHIDESEMKKVEKSVNEVMEWMNNVMNAQAKKSLDQDPVVRAQEIKTKIKELNNTCEPVVTQPKPKIESPKLERTPNGPNIDKKEEDLEDKNNFGAEPPHQNGECYPNEKNSVNMDLD
[1]
  hsp105 protein-specific growth of Th ([3H] thymidine intake): specifically reacted with the hsp105 protein and grew
[2]
  IFN-γ and IL-4 secreted from Th: generates a large amount of IFN-γ
[3]
  hsp105 protein-specific growth of Th ([3H] thymidine intake): specifically reacted with the hsp105 protein and grew
[4]
  IFN-γ and IL-4 secreted from Th: generates a large amount of IFN-γ
Colon-26
  growth of Colon-26 tumor after local injection of Th: clearly retarded

Reference: patent US9404925B2, “Cancer antigen and use thereof” (MEDINET CO., LTD., priority 2002, dated 2016)
